Reference: US20230131339A1, “EPI-X4 BASED PEPTIDES AND DERIVATIVES THEREOF” (Universitaet Ulm, priority 2020, published 2023)
Where “and” joins values, the source holds several entries; their conditions need not be identical. Identical values can stand only once. Like-named read-outs stand apart in the source and are kept apart here. Where a SMILES comes first, the peptide text is derived from it. Where no end group is shown, it is not given here. Side-chain parts run from the residue outwards. [ ]: non-standard residue; d: D form. The star is where a group is joined. DOTA = O=C(O)CN1CCN(CC(=O)O)CCN(CC(=O)*)CCN(CC(=O)O)CC1; Stearoyl = CCCCCCCCCCCCCCCCCC(=O)*; Palmitoyl = CCCCCCCCCCCCCCCC(=O)*; Glu = glutamate linker

What was measured:
[1] = Lipophilicity, shake-flask method (n-octanol/PBS pH 7.4); assay type: physicochemical
Procedure: The hydrophilic/lipophilic character of the ^177Lu/^68Ga-labeled conjugates was determined by the “shake-flask” method. To a pre-saturated solution containing 500 μL of n-octanol and 500 μL of phosphate-buffered saline (PBS) at pH 7.4, 10 μL of 1 picomol ^177Lu/^68Ga-labeled conjugates was added. The solutions were vortexed for 1 h to reach equilibrium and then centrifuged (3000 rpm) for 10 min. Hundred μl of the sample was removed from each phase and measured in a γ-counter. The partition coefficient was calculated as the average of the logarithmic values (n=3) of the ratio between the radioactivity in the organic and the PBS phase. Results are means±standard deviation from a minimum of two separate experiments. ^177Lu/^68Ga-labeled Pentixather, which is a known CXCR4-directed endoradiotherapeutic agent, is used as reference molecule.

[2] = Stability of radiolabeled conjugates in buffer (radiochemical purity over time); assay type: physicochemical; conditions: NH4-acetate buffer pH 5.2, ethanol, room temperature
Procedure: The stability of ^177Lu/^68Ga-labeled DOTA-conjugated peptides in ammonium acetate buffer (0.4 M, pH 5.2) and sodium acetate buffer (0.2 M, pH 4-4.5) was assessed by determining the radiochemical purity (RCP) of each radiolabeled conjugate at different time points (0, 1, 2, 4, and 24 h for ^177Lu-complexes and at 0, 1 and 2 h for ^68Ga-complexes) at room temperature. For this, an aliquot of labeling solution was stored at room temperature. RP-HPLC injections were consecutively performed at the desired time points.
Radiolysis-induced instability of [^177Lu]Lu-labeled DOTA-conjugated peptides over time was tracked by determining the radiochemical purity (Table 3). Results are means±standard deviation from a minimum of two separate experiments.

[3] = test system: CXCL12-induced ERK signaling; assay: ERK/AKT signaling assay in SupT1 cells: ERK phosphorylation; assay type: cell-based; conditions: 1 μM
Procedure: Third, the activity of the claimed EPI-X4 derivatives was tested by the effect on CXCL12/CXCR4-mediated ERK (Extracellular-signal Regulated Kinases) and AKT (a serine/threonine-protein kinase) signaling (FIG. 3). In that assay CXCR4 expressing cells are stimulated with the CXCR4 chemokine-ligand CXCL12, which subsequently leads to phosphorylation of ERK and AKT. Preincubation of cells with CXCR4-antagonists blocks those pathways. […] Two or three independent experiments were carried out in triplicates for each peptide in each assay. The error bars refer to the standard deviation.
ERK/AKT signaling assay. CXCL12 induced ERK and AKT phosphorylation was determined in SupT1 cells. For this, 100,000 cells were seeded per well in a 96-V well plate in 100 μl medium supplemented with 1% FCS. Cells were incubated for 2 hours at 37° C. before 5 μl of compounds were added. After 15 min incubation at 37° C. cells were stimulated by adding 5 μl CXCL12 diluted in PBS to reach a final concentration of 100 ng/ml. Cells were further incubated for 2 min before the reaction was stopped by adding 20 μl of 10% PFA. Cells were fixed for 15 min at 4° C. before PFA was removed and cells permeabilized by adding 100 μl ice cold methanol. After 15 min at 4° C. the methanol was removed, cells were washed and 30 μl primary antibody was added (phospho-p44/42 MAPK (Erk1) (Tyr204)/(Erk2) (Tyr187) (D1H6G) mouse mAb #5726; phosphor-Akt (Ser473) (193H12) rabbit mAb #4058 Cell Signaling) for 1 hour at 4° C. After the antibody was removed and cells were washed secondary antibody was added for 30 min. Cells were washed afterwards and subsequently analyzed by flow cytometry.

[4] = Functional stability assay in human plasma
Procedure: Fourth, the stability of peptides in human plasma and whole human blood was tested (FIG. 4). The functional stability of EPI-X4 (SEQ ID NO.: 1) derivatives was screened using a CXCR4 antibody-based screening approach. Peptides were diluted in full human plasma or blood (>99%) and the functional activity was then measured after either 2 hours or 8 hours and compared to a sample that was not incubated in plasma or blood.
In this test, the peptides were incubated in human plasma for a certain time period.
Stability assay. Whole blood was collected from healthy donors in EDTA tubes and directly used or subsequently centrifuged for 15 min at 2,500×g to obtain plasma. Plasma from 6 donors was pooled and stored in aliquots at −80° C. Compounds were 200-fold diluted in human plasma or whole human blood to reach final concentrations of 20 μM. The t=0 sample was immediately taken and stored at −80° C. Plasma/compound or blood/compound mixture was then transferred to 37° C. and shook at 350 rpm. At given time points samples were taken and stored at −80° C.°. For measuring the functional activity of the plasma/peptide samples, the mixtures were thawed and diluted in ice cold PBS. 12G5-APC antibody competition was then performed as described before. For blood/peptide functional stability, samples were thawed and centrifuged at 14,000 rpm to remove cells and debris. The supernatant was then diluted in PBS and 12G5-antibody competition assay was performed. After the 2 hours incubation, the cells were washed and 50 μl of 1-step-Fix/Lyse solution (Thermo Fisher #00-5333-54) was added for 15 minutes at room temperature. Afterwards cells were washed again and analyzed for bound antibody.

[5] = test system: CXCL12-induced AKT signaling; assay: ERK/AKT signaling assay in SupT1 cells: AKT phosphorylation; assay type: cell-based; conditions: 10 μM
Summary of the method: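 SupT1 cells in 1% FCS medium preincubated 15 min at 37 °C with compound, then stimulated 2 min with CXCL12 (100 ng/ml final). PFA-fixed, methanol-permeabilized cells stained for phospho-ERK1/2 (Tyr204/Tyr187) or phospho-AKT (Ser473) and read by flow cytometry; two or three independent experiments in triplicate.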

[6] = Stability assay in human S9 liver fractions; conditions: with cofactors
Procedure: Further, the stability of peptides in human S9 liver fractions (in the presence of cofactors) was tested (FIG. 12). […] To simulate and predict hepatic metabolic clearance, peptides were added to human S9 liver fractions. […] For each peptide, three independent experiments were performed.
Stability assay in human S9 liver fractions. Pooled human liver S9 fractions were obtained from Thermo Fisher Scientific at a total protein concentration of 20 mg/ml. Fractions were stored in 25 μl aliquots at −80° C. For stability experiments, they were diluted to a final concentration of 0.5 mg/ml in Tris buffer. Cofactors (or buffer) were added immediately before start of the experiment (NADPH: 1 mM, UDPGA: 0.5 mM, GSH: 2.5 mM, PAPS: 0.05 mg/ml, Sigma Aldrich). The reaction was started by adding peptides or compounds at a concentration of 20 μM to the mixture and gentle agitation at 37° C. Determination of enzymatic stability was performed as described for plasma.

[7] = molecular target: T1, CXC chemokine receptor type 4 (CXCR4) (human, UniProt P61073 1-352); assay: antibody competition assay
T1 construct: whole, on cells
Procedure: Antibody competition assay. Competition of compounds with antibody binding was performed on SupT1 cells. For that cells were washed in PBS containing 1% FCS and 50,000 cells were then seeded per well in a 96 V-well plate. Buffer was removed and plates were precooled at 4° C. […] The antibody was used at a concentration closed to its determined Kd. 15 μl compounds were then added to the cells and 15 μl antibody immediately afterwards. Plates were incubated at 4° C. in the dark for 2 hours. Afterwards cells were washed twice with PBS containing 1% FCS and fixed with 2% PFA. Antibody binding was analyzed by flow cytometry (FACS CytoFLEX; Beckman Coulter®).

[8] = molecular target: T1, CXC chemokine receptor type 4 (CXCR4); assay: cell-based or functional assay
[9] = molecular target: T2, CXC chemokine receptor type 4 (CXCR4) (human, UniProt P61073 1-352); assay: 12G5 antibody competition
T2 chain: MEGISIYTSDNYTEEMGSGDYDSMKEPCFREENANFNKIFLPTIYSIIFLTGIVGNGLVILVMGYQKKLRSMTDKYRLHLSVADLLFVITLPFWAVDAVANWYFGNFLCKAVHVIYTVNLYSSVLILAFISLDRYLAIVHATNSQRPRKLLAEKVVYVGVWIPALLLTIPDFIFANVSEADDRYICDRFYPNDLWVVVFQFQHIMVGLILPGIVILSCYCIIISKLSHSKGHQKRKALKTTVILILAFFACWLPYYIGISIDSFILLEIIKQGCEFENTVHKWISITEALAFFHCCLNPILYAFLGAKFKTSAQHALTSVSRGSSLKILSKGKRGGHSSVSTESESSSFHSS

[^177Lu]Lu-DOTA-K-JM#21: ^177Lu-labeled DOTA-K-JM #21 (SEQ ID NO.: 101) (ILRWSRKLPCVSK(DOTA); also: 177Lu chelated)
log DO/PBS pH7.4 [1]: −1.91 ± 0.24
Radiochemical purity ([2]; time point 1 h): 93 ± 3%
Radiochemical purity ([2]; time point 2 h): 92 ± 6%
Radiochemical purity ([2]; time point 4 h): 90 ± 7%
Radiochemical purity ([2]; time point 24 h): 62 ± 13%

[^177Lu]Lu-DOTA-K-JM#29: ^177Lu-labeled DOTA-K-JM #29 (SEQ ID NO.: 165) ([dL]LRWSRKMPCVSK(DOTA); also: 177Lu complex of DOTA)
log DO/PBS pH7.4 [1]: −1.49 ± 0.29
Radiochemical purity ([2]; time point 0 h): 98 ± 1%
Radiochemical purity ([2]; time point 1 h): 96 ± 3%
Radiochemical purity ([2]; time point 2 h): 92 ± 9%
Radiochemical purity ([2]; time point 4 h): 90 ± 9%

[^177Lu]Lu-DOTA-K-JM#122: ^177Lu-labeled DOTA-K-JM #122 (SEQ ID NO.: 102) (ILRWSRKLPSVSK(DOTA); also: 177Lu complex of DOTA)
log DO/PBS pH7.4 [1]: −3.23 ± 0.23
log DO/PBS pH7.4 ([1]; listed as [^177Lu]Lu-DOTA-K-JM #122): −3.23±0.23
Radiochemical purity ([2]; time point 0 h): 97 ± 0%
Radiochemical purity ([2]; time point 1 h): 97 ± 0%
Radiochemical purity ([2]; time point 2 h): 96 ± 1%
Radiochemical purity ([2]; time point 4 h): 96 ± 1%
Radiochemical purity ([2]; time point 24 h): 78 ± 1%
Radiochemical purity ([2]; time point 24 h, listed as [^177Lu]Lu-DOTA-K-JM #207): 78±1%

CC[C@H](C)[C@H](N)C(=O)N[C@H](C(=O)N[C@@H](CCCNC(=N)N)C(=O)N[C@@H](Cc1c[nH]c2ccccc12)C(=O)N[C@@H](CO)C(=O)N[C@@H](CCCCN)C(=O)N[C@@H](CCCCN)C(=O)N[C@H](C(=O)N1CCC[C@H]1C(=O)N[C@@H](CS)C(=O)N[C@H](C(=O)N[C@@H](CO)C(=O)O)C(C)C)C(C)C)C(C)C [WSC02, reference compound] (H-IVRWSKKVPCVS-OH; C-terminus assumed)
reduction of CXCL12-induced ERK signaling [3]: 20%
remaining (relative) activity after 2 hours of plasma incubation ([4]; human plasma, 2 hours): completely inactive
reduction of CXCL12-induced AKT signaling [5]: about 50%
remaining activity in human S9 liver fractions after 2 hours ([6]; 2 hours): readily inactivated by liver enzymes

CC[C@@H](C)[C@@H](N)C(=O)N[C@@H](CC(C)C)C(=O)N[C@@H](CCCNC(=N)N)C(=O)N[C@@H](Cc1c[nH]c2ccccc12)C(=O)N[C@@H](CO)C(=O)N[C@@H](CCCNC(=N)N)C(=O)N[C@@H](CCCCN)C(N)=O [JM #173, d-ILRWSRK-NH2] (H-[dI]LRWSRK-NH2)
remaining (relative) activity after 8 hours of plasma incubation ([4]; human plasma, 8 hours): 100%
functional stability in human plasma (in words) ([4]; human, plasma): completely resistant to plasma enzymes
remaining activity in human S9 liver fractions after 8 hours ([6]; 8 hours): about 14%

[^177Lu]Lu-DOTA-JM#118: ^177Lu-labeled DOTA-JM #118 (SEQ ID NO.: 166) (ILRWSRK(DOTA)-NH2; also: 177Lu complex of DOTA)
log DO/PBS pH7.4 [1]: −3.12 ± 0.43
Radiochemical purity ([2]; time point 0 h): 99 ± 0%
Radiochemical purity ([2]; time point 1 h): 98 ± 0%
Radiochemical purity ([2]; time point 2 h): 97 ± 1%
Radiochemical purity ([2]; time point 4 h): 95 ± 1%
Radiochemical purity ([2]; time point 24 h): 80 ± 2%
Radiochemical purity ([2]; time point 24 h, listed as [^177Lu]Lu-DOTA-JM #118): 80±2%

B1: SEQ ID NO.: 164 (peptide)
peptide: ILRWSRK([Glu-Stearoyl])LPSVS
notes: derived from JM#198 by replacing the cysteine at position 10 by a serine; also called ILRWSRK(Glu-Ste)LPSVS
IC50 [7]: < 25 nM
IC50, HIV inhibition assay [8]: > 150 nM

[dM]LRWSRKK-NH2 (not fully specified (residue 8)) [JM#197]
IC50 [7]: < 25 nM
IC50, HIV inhibition assay [8]: > 150 nM

[dL]MRWSRKK-NH2 (not fully specified (residue 8)) [JM#195]
IC50 [7]: < 25 nM
IC50, HIV inhibition assay [8]: 50 nM to 150 nM (2×) and > 150 nM

ILRWSRKLPCVS (not fully specified (residue 7)) [JM#198]
IC50 [7]: < 25 nM
IC50, HIV inhibition assay [8]: > 150 nM

[dM]LRWSRK([Glu-Palmitoyl])-NH2 [JM#196]
IC50 [7]: < 25 nM
IC50 [9]: 31 nM
IC50, HIV inhibition assay [8]: > 150 nM
